We go through ten molecules from patent US20250034594A1, “RNA-GUIDED GENOME RECOMBINEERING AT KILOBASE SCALE” (THE BOARD OF TRUSTEES OF THE LELAND STANFORD JUNIOR …, priority 2021, published 2025).

Holding throughout (format): cell-based
For one data set, the system named is mammalian cells. The experiment in a line: Arrayed SSAP library screening, cell viability by live cell counts via flow cytometry. How it is done: (§1) Each SSAP encoding plasmid was tested in duplicate, including a negative control (same plasmid encoding Flag_HA which is not expected to promote gene editing). Transfections were in 96-well plates and transfection efficiency was estimated to be 50%.
(§2) Three days after transfection, mKate positive cells and cell viability were quantified across all replicates, along with positive (original RecT SSAP) and negative (Flag-HA control protein) controls. […] At the same time, the cell viability was measured by live cell counts via flow cytometry, to help quantify the fitness effect of SSAP on mammalian cells.
(§3) SSAP proteins are identified by Uniparc deposit number and SEQ ID NO. Alignment numbers correspond to SSAPs in FIGS. 58, 59, and 60.

The subject of another data set is gene editing with Cas9. The experiment in a line: Screen of 322 new SSAP proteins, gene editing activity with Cas9 (Table 5). Also noted: Cas9 with SSAP activity: scale not given here. In a few lines: (§4)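 The 322 SSAP proteins were found in sequence data and then synthesized. Each was screened for gene editing activity when paired with Cas9 and with dCas9.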
The test system of data set [1] is gene editing with Cas9 and dCas9. The experiment in a line: Screen of 322 new SSAP proteins, activity across all experiments (Cas9 and dCas9, Table 5). Further details: scale not given here. In a few lines:
as §4

The test system of data set [2] is endogenous genome targets (ACTB, HSP90AA1). The data set can be described thus: Arrayed SSAP library screening, mKate knock-in assay (editing efficiency). Conditions: average of HSP90 and ACTB, 3 days after transfection; for Editing Efficiency (Normalized, Average, two targets): fold over negative control (Flag_HA); for Editing Efficiency (Absolute, Average, two targets): percent of mKate knock-in. The procedure: Arrayed SSAP library screening on endogenous genome targets (ACTB. HSP90AA1) using mKate knock-in assay.
SSAP-encoding plasmids were purified and quantified.
as §1, §2, §3

The next data set concerns gene editing with dCas9. The experiment in a line: Screen of 322 new SSAP proteins, gene editing activity with dCas9 (Table 5). Further details: dCas9 with SSAP activity: scale not given here. A digest of the protocol:
as §4

B1: SSAP_172: SEQ ID NO: 341; Staphylococcus pettenkoferi (protein, listed as Staphylococcus pettenkoferi)
chain: ATQKDFKNQISQKETQQKQEVQKKKKGPRQQVSDLLDRMAPEIEKALPNHLSADRMARVAMTAVSSNPKLLECDPKSFIGAVMQSAQLGLEPNTALGEAYLVPYAGKVNFQLSYLGLINLATRSGQYKAIYAHEVYAEDEFRYQYGLHKDLIHKPVDNPKGKPIGYYAVYHLLNGGYDFVYWTTERIQKHAKKYSFAVQKGYQSPWNDEFDAMAKKTVLKDLLKYAPKSIEMNNAVRSDDKQSELSDEGVVIDVTNYDEENGEEK
Take B1: the “Cell Viability (Average, two targets)” value in the data set with mammalian cells was found to be 0.9046. Moreover, in the data set on gene editing with Cas9, the “Cas9 with SSAP activity” value is on record as −2.356 and the “Cas9 with SSAP activity (normalized)” value is recorded as −0.702. Further, the “Activity across all experiments” value in data set [1] was −3.822. For the same molecule, in data set [2], the “Editing Efficiency (Normalized, Average, two targets)” value worked out at 4.239 and the “Editing Efficiency (Absolute, Average, two targets)” value was found to be 10.4925. In the data set with gene editing with dCas9, the “dCas9 with SSAP activity” value is −5.287 and the “dCas9 with SSAP activity (normalized)” value is −0.724.

B2: SSAP_288: SEQ ID NO: 457; Clostridium thermobutyricum (protein, listed as Clostridium thermobutyricum)
chain: QSTGDIVFPQNYNYSNALKSAQLILAETVDRNKVPVLQSCSKPSICNALLDMVIQGLSPAKKQCYFVPYGGKLQLMKSYLGNIAATKRLKGVKDVFANVIYEGDVFEYKLNLNTGLIEIEKHEQKFENISKKILGAYAVVVRENQNNYVEVMNIEQIKNAWNQGAAKGNSQAHKNFAEEMAKKTVINRACKRFVNTSDDSDTLIESINRTNEYKEEDIIETTKSEVGEEIKENANTENLGLEDTEVVEAEVIENIEFEGDK
Turning to B2, the “Cell Viability (Average, two targets)” value in the data set with mammalian cells is 0.6836. Also, in data set [2], the “Editing Efficiency (Normalized, Average, two targets)” value is 3.832 and the “Editing Efficiency (Absolute, Average, two targets)” value was 9.4725.

B3: SSAP_173: SEQ ID NO: 342; Tyzzerella nexilis (protein, listed as Tyzzerella nexilis)
chain: AGVKEELAKKAESTKGETKLTKSMSIADLIKAMEPEIKKALPEVITPERFTRMALSALNTTPKLRECTQMSFLAALMNAAQLGLEPNTPLGQAYLIPYNNKGVMECQFQIGYKGLIDLSYRNPQMQIISAQAVYENDDFSYELGLNPKLEHCPTLGERGEVRLFYGFFKLVNGGFGFEVMSKTAMDEYAKEYSKAFDSSFSPWKSNYIGMAKKTVIKQALKYAPLKTDFRKALSNDETIKTELSDDMSDIHGEEIWDVEYQEKTA
Consider B3, for which the “Cell Viability (Average, two targets)” value with mammalian cells is 0.8787. For the same molecule, in data set [2], the “Editing Efficiency (Normalized, Average, two targets)” value is 4.674 and the “Editing Efficiency (Absolute, Average, two targets)” value came out at 11.55.

B4: SSAP_20: SEQ ID NO: 189; CK3_26380 butyrate-producing bacterium SS3/4 (protein)
chain: ENATAVQQAESQGTQDFSAPVKHNTDFSLGIFGSSDNFLMATQMAKAFASSTIVPKEYQGNFANGLVAMDIANRLKTSPFMVMQNLDVIQGRPAWRATFLIAMINRSKKYDIELQFEEKRDKNGKPYSCTCWTTKDGRKVTGIEVTMDMAEAEGWTKKNGSKWITMPQVMLRYRAASFFSRMNCPELSNGLYTTDEVYEMADSEYKVYNLEDEVKRDLAQNANKEEFVAPPNETAPESESKGSEPLDPAVENQKSGDTPDWMKPETM
modifications: butyrate-producing bacterium SS3/4
Consider B4, for which, in the data set on mammalian cells, the “Cell Viability (Average, two targets)” value was 1.174. Moreover, in the data set on gene editing with Cas9, the “Cas9 with SSAP activity” value is reported as −0.183 and the “Cas9 with SSAP activity (normalized)” value is on record as −0.399. In addition, the “Activity across all experiments” value in data set [1] is reported as −2.181. In data set [2], the “Editing Efficiency (Normalized, Average, two targets)” value worked out at 5.982 and the “Editing Efficiency (Absolute, Average, two targets)” value turned out to be 14.85. In the data set with gene editing with dCas9, the “dCas9 with SSAP activity” value was −4.179 and the “dCas9 with SSAP activity (normalized)” value is recorded as −0.615.

B5: SSAP_191: SEQ ID NO: 360 in b312 (Table 9 prints 354); Microbacterium sp. K41 (protein, listed as Microbacterium sp.)
chain: SKDLSTAAAAAKSQPTMKDLVEAQLPAIERQLGGAMNSDAFVRAVLSEIGKSPDLMNADPKTLLGGVMLAAQLRLEIGSGLGEFYLTPRKDRGRQICLPIIGYQGMIKLALRSEYVLNVQAFLVREGDDFTYGGNSERGMFYDWTPKDFEESRPWIGVVATAKMRGGGTTWVYLTRTQVIDRRPSYWASTPWKTNEDEMVKKTAVRALAKFLPKSTDLGRALEADEAKVQHLKGVDEVQVTRLDDDAETFVVQEQDPMSRTPEEQAEDEANR
For B5, the “Cell Viability (Average, two targets)” value in the data set on mammalian cells is given as 1.129. In data set [2], the “Editing Efficiency (Normalized, Average, two targets)” value was determined as 4.75 and the “Editing Efficiency (Absolute, Average, two targets)” value stood at 11.75.

B6: SSAP_192: SEQ ID NO: 361; Streptococcus pyogenes (protein)
chain: SDLSVAAAAAKTQPTMKDLVEAQLPAIERQLGGAMNSAAFVRAVLSEIGKSPDLMAADPKTLLGGVMLAAQLRLEIGSGLGEFYLTPRKERGRQICLPIIGYQGLIKLALRSEFVMNVQAFLVRQGDQFSYGANAERGMFYDWVPQDFEETRDWIGVVATARMRSGGTTWVYLTRTQVIDRRPSYWNSTPWKTNEDEMVKKTAVRALAKFLPKSTDLGRALEADEAKVQTLRGLDEVEVTRLDDEADTVVVQEQNPMSRTPEEQAEDAEAQR
modifications: Streptococcus pyogenes
Take B6: the “Cell Viability (Average, two targets)” value with mammalian cells is listed as 1.071. In addition, in data set [2], the “Editing Efficiency (Normalized, Average, two targets)” value is 5.372 and the “Editing Efficiency (Absolute, Average, two targets)” value is reported as 13.3.

B7: SSAP_210: SEQ ID NO: 379; Rufibacter latericius (protein, listed as Rufibacter latericius)
chain: SNQLQVAREQVISAQKSFKNVPNNKLDFEREAGFAMQMIQSNPFLASMDANSIRNCIVNVALTGLTLNPVLKLAYLVPRKGKLILDPSYMGLINVLVTSGAAKKIEADVVCENDFFDYEKGTNGFIKHKPSLSSRGEIIAAYAIAHLPNGEVQFEIMNREELEKVRKSSEAAKKGSSPYDGWASEMMRKAPIRRLFKYLPKHNIPDQVINTLSLDEQNNGVDFSAQKQEAFKGKAADFFEDEPANTVDADYTDMSHEEADNELAA
On to B7, for which the “Cell Viability (Average, two targets)” value in the data set on mammalian cells is given as 0.408. In data set [2], the “Editing Efficiency (Normalized, Average, two targets)” value is listed as 6.484 and the “Editing Efficiency (Absolute, Average, two targets)” value stood at 16.05.

B8: SSAP_184: SEQ ID NO: 353; Streptomyces scabiei (protein, listed as Streptomyces scabiei)
chain: DADRMARIALTLIRKNPDLATCSGESFLGALMTCSQLGFEPGSPTQEAFIVPYKGEATFQLGYQGMVTLFYQHPMASSVKVETVRENDYFEHEEGLEEKLVHRPCKTGPRGKAIAYYSVARLINGGRTFKVMYPAEIEERREKLPSKNSPAWRNSYDEMAKKTVLRNHFKALPKSAELARAMAHDGTVRTDWQPDAIDVPPEYLSEPQRPELGTGSTQ
Consider B8, for which, in the data set on mammalian cells, the “Cell Viability (Average, two targets)” value is 0.7361. In addition, in the data set with gene editing with Cas9, the “Cas9 with SSAP activity” value was −0.836 and the “Cas9 with SSAP activity (normalized)” value is reported as −0.308. The “Activity across all experiments” value in data set [1] was −1.873. Further, in data set [2], the “Editing Efficiency (Normalized, Average, two targets)” value is 5.689 and the “Editing Efficiency (Absolute, Average, two targets)” value is on record as 14.075. Also, in the data set on gene editing with dCas9, the “dCas9 with SSAP activity” value was −2.910 and the “dCas9 with SSAP activity (normalized)” value is −0.482.

B9: SSAP_190: SEQ ID NO: 359; Microbacterium laevaniformans OR221 (protein)
chain: TDLSTVAAAAKQNPTMKDLVEAQLPAIERQLGGTMNSDAFVRAVLSEITKSPDLMQADPKTLLGGVMLAAQLRLEIGSGLGEFYLTPRKDHGRMICLPIVGFQGMVKLALRSEFVTNVQAFIVREGDDFTYGANAERGMFYDWTPKDFEEKRPMVGVVATARMKQGGTTWAYLTREQVEDRRPSYWQKTPWGSHPDEMAKKTAVRALAKYLPKATDLGRAIEADEQKVQHVKGLDEVTVTRLDDEPETVVVQETTDAWAATPVAEVQP
modifications: Microbacterium laevaniformans
notes: Microbacterium laevaniformans OR221
With B9, the “Cell Viability (Average, two targets)” value with mammalian cells was determined as 1.044. Also, in data set [2], the “Editing Efficiency (Normalized, Average, two targets)” value was 5.26 and the “Editing Efficiency (Absolute, Average, two targets)” value is 13.025.

B10: SSAP_220: SEQ ID NO: 389; Amycolatopsis circi (protein, listed as Amycolatopsis circi)
chain: ISQTVTTAVAQQKDSSPAALVRKYRTDFATVLPSHIKPETWLRIATGALRRSPQLANAAKRNPSSLLVALLEAARKGLEPGTEQFYLVPRKGKNGPEVLGITGYQGEVELMYRAGAVSSVKVEVVREHDTFAYNPGEHDRPVHEIDWRADRGDLVLTYAYAVMRDGATSNVVVLSADDIAVILKKADGADSPFSPWQWNPKAMWLKSAARQLAKWVPTSAEYVRLPDVPLESLPPAKPLDLPRVDDVVDAEIVEDWPTAPDDTADGAR
In the case of B10, the “Cell Viability (Average, two targets)” value in the data set on mammalian cells is given as 0.9152. In data set [2], the “Editing Efficiency (Normalized, Average, two targets)” value is given as 4.599 and the “Editing Efficiency (Absolute, Average, two targets)” value is recorded as 11.375.
